Laboratory results: patent publication US20220204611A1 (Amgen, published 2022)

T1: human TREM2 (human, UniProt Q9NZC2 19-174, limits assumed)
T1 sequence: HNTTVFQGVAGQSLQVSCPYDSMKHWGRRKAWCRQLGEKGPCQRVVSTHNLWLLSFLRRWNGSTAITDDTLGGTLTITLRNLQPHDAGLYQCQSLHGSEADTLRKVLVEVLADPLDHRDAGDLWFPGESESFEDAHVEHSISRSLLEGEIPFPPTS


Columns and labels:
human TREM2 [1] = molecular target: T1, human TREM2; experiment: yeast-displayed Fab FACS, 1st screen 110 nM
human TREM2 [2] = molecular target: T1, human TREM2; experiment: yeast-displayed Fab FACS, 2nd screen 100 nM

| Binder | binding signal fold over 6E7 parental (human TREM2 [1]) | binding signal fold over 6E7 parental (human TREM2 [2]) |
| --- | --- | --- |
| V43 (Fab, V domains shown) VH: EVQLVQSGAEVKKPGESLKISCKGSGYSFTSYWIAWVRQMPGKGLEWMGIIYPGDSGTRYSPSFQGQVTISADKSISTAYLQWSSLKASDTAMYFCARQRTFYYDSSDYFDYWGQGTLVTVSS VL: DIQMTQSPSSVSASVGDRVTITCRASQGISSWLAWYQQKPGKAPKLLIYAASSLQNGVPSRFSGSGSGTDFTLTISSLQPEDFATYFCQQADSFPRTFGQGTKLEIK | 0.2 fold | 0.33 fold |
| V54 (Fab, V domains shown) VH: EVQLVQSGAEVKKPGESLKISCKGSGYSFTSQWIAWVRQMPGKGLEWMGIIYPGDSDTRYSPSFQGQVTISADKSISTAYLQWSSLKASDTAMYFCARQRTFYYDSSDYFDYWGQGTLVTVSS VL: DIQMTQSPSSVSASVGDRVTITCRASQGISSWLAWYQQKPGKAPKLLIYAASSLQNGVPSRFSGSGSGTDFTLTISSLQPEDFATYFCQQADSFPRTFGQGTKLEIK | 0.55 fold | 0.54 fold |
| V67 (Fab, V domains shown) VH: EVQLVQSGAEVKKPGESLKISCKGSGYSFTSYWIAWVRQMPGKGLEWMGMIYPGDSDTRYSPSFQGQVTISADKSISTAYLQWSSLKASDTAMYFCARQRTFYYDSSDYFDYWGQGTLVTVSS VL: DIQMTQSPSSVSASVGDRVTITCRASQGISSWLAWYQQKPGKAPKLLIYAASSLQNGVPSRFSGSGSGTDFTLTISSLQPEDFATYFCQQADSFPRTFGQGTKLEIK | 0.8 fold | 0.84 fold |
| V46 (Fab, V domains shown) VH: EVQLVQSGAEVKKPGESLKISCKGSGYSFTSYWIAWVRQMPGKGLEWMGIIYPGDSDTRYSPSFQGQVTISADKSISTAYLQWSSLKASDTAMYFCARQRTFYYDSSDYFDYWGQGTLVTVSS VL: DIQMTQSPSSVSASVGDRVTITCRASQGISSWLAWYQQKPGKAPKLLIYAASTLQNGVPSRFSGSGSGTDFTLTISSLQPEDFATYFCQQADSFPRTFGQGTKLEIK | 0.83 fold | 0.96 fold |
| V55 (Fab, V domains shown) VH: EVQLVQSGAEVKKPGESLKISCKGSGYSFTSYWIAWVRQMPGKGLEWMGIIYPGDSDTIYSPSHQGQVTISADKSISTAYLQWSSLKASDTAMYFCARQRTFYYDSSDYFDYWGQGTLVTVSS VL: DIQMTQSPSSVSASVGDRVTITCRASQGISSWLAWYQQKPGKAPKLLIYAASSLQNGVPSRFSGSGSGTDFTLTISSLQPEDFATYFCQQADSFPRTFGQGTKLEIK | 0.24 fold | 0.66 fold |
| V56 (Fab, V domains shown) VH: EVQLVQSGAEVKKPGESLKISCKGSGYSFTSYWIAWVRQMPGKGLEWMGIIYPGDSDTRYQPSFQGQVTISADKSISTAYLQWSSLKASDTAMYFCARQRTFYYDSSDYFDYWGQGTLVTVSS VL: DIQMTQSPSSVSASVGDRVTITCRASQGISSWLAWYQQKPGKAPKLLIYAASSLQNGVPSRFSGSGSGTDFTLTISSLQPEDFATYFCQQADSFPRTFGQGTKLEIK | 0.23 fold | 0.59 fold |
| V47 (Fab, V domains shown) VH: EVQLVQSGAEVKKPGESLKISCKGSGYSFTSYWIAWVRQMPGKGLEWMGIIYPGDSDTRYSPSFQGQVTISADKSISTAYLQWSSLKASDTAMYFCARQRTFYYDSSDYFDYWGQGTLVTVSS VL: DIQMTQSPSSVSASVGDRVTITCRASQGISSWLAWYQQKPGKAPKLLIYAASSLQNGVPSRFSGSGSGTDFTLTISSLQPEDFATYFCQQADSFPMTFGQGTKLEIK | 0.42 fold | 0.47 fold |
| V57 (Fab, V domains shown) VH: EVQLVQSGAEVKKPGESLKISCKGSGYSFTSYWIAWVRQMPGKGLEWMGIIYPGDSDTRYSPSFQGQVTISADKSISTAYLQWSSLKASDTAMYFCARQRTFYYDSSDYFDYWGQGTLVTVSS VL: DIQMTQSPSSVSASVGDRVTITCAASQGISSWLAWYQQKPGKAPKLLIYAASSLQNGVPSRFSGSGSGTDFTLTISSLQPEDFATYFCQQADSFPRTFGQGTKLEIK | 0.84 fold | 0.85 fold |
| V66 (Fab, V domains shown) VH: EVQLVQSGAEVKKPGESLKISCKGSGTSFTSYWIAWVRQMPGKGLEWMGIIYPGDSDTRYSPSFQGQVTISADKSISTAYLQWSSLKASDTAMYFCARQRTFYYDSSDYFDYWGQGTLVTVSS VL: DIQMTQSPSSVSASVGDRVTITCRASQGISSWLAWYQQKPGKAPKLLIYAASSLQNGVPSRFSGSGSGTDFTLTISSLQPEDFATYFCQQADSFPRTFGQGTKLEIK | 0.25 fold | 0.74 fold |
| V44 (Fab, V domains shown) VH: EVQLVQSGAEVKKPGESLKISCKGSGYSFTSYWIAWVRQMPGKGLEWMGIIYPSDSDTRYSPSFQGQVTISADKSISTAYLQWSSLKASDTAMYFCARQRTFYYDSSDYFDYWGQGTLVTVSS VL: DIQMTQSPSSVSASVGDRVTITCRASQGISSWLAWYQQKPGKAPKLLIYAASSLQNGVPSRFSGSGSGTDFTLTISSLQPEDFATYFCQQADSFPRTFGQGTKLEIK | 0.65 fold | 0.52 fold |
| V58 (Fab, V domains shown) VH: EVQLVQSGAEVKKPGESLKISCKGSGYSFTSYWIAWVRQMPGKGLEWMGIIYPGDSDTRYSPSFQGQVTISADKSISTAYLQWSSLKASDTAMYFCARQRTFYYDSSDYFDYWGQGTLVTVSS VL: DIQMTQSPSSVSASVGDRVTITCRASQGISSWLAWYQQKPGKAPKLLIYKASSLQNGVPSRFSGSGSGTDFTLTISSLQPEDFATYFCQQADSFPRTFGQGTKLEIK | 0.28 fold | 0.68 fold |
| V68 (Fab, V domains shown) VH: EVQLVQSGAEVKKPGESLKISCKGSGYSFTSYWIAWVRQMPGKGLEWMGIIYPGDSDTRYSPSFQGQVTISADKSISTAYLQWSSLKASDTAMYFCARQRTFRYDSSDYFDYWGQGTLVTVSS VL: DIQMTQSPSSVSASVGDRVTITCRASQGISSWLAWYQQKPGKAPKLLIYAASSLQNGVPSRFSGSGSGTDFTLTISSLQPEDFATYFCQQADSFPRTFGQGTKLEIK | 0.44 fold | 0.43 fold |
| V59 (Fab, V domains shown) VH: EVQLVQSGAEVKKPGESLKISCKGSGYSFTSYWIAWVRQMPGKGLEWMGIIYPGDSDTRYSPSFQGQVTISADKSISTAYLQWSSLKASDTAMYFCARQRTFYYDSSDYFDYWGQGTLVTVSS VL: DIQMTQSPSSVSASVGDRVTITCRASQGISSWLAWYQQKPGKAPKLLIYAASSLQNGVPSRFSGSGSGTDFTLTISSLQPEDFATYFCMQADSFPRTFGQGTKLEIK | 0.19 fold | 0.6 fold |
| V45 (Fab, V domains shown) VH: EVQLVQSGAEVKKPGESLKISCKGSGYSFTSYWIAWVRQMPGKGLEWMGIIYPGDSDTRYSPSFQGQVTISADKSISTAYLQWSSLKASDTAMYFCARQRTFYYDSSDYFDYWGQGTLVTVSS VL: DIQMTQSPSSVSASVGDRVTITCRASQGISSFLAWYQQKPGKAPKLLIYAASSLQNGVPSRFSGSGSGTDFTLTISSLQPEDFATYFCQQADSFPRTFGQGTKLEIK | 0.43 fold | 0.53 fold |
